Experimental data from patent publication US20060276387A1 (published 2006).

B1: human PHD finger protein 1 (PHF1), N-terminus HA-tagged (other, not shown: small tags and cut ends)
chain: MAQPPRLSRSGASSLWDPASPAPTSGPRPRLWEGQDVLARWTDGLLYLGTIKKVDSAREVCLVQFEDDSQFLVLWKDISPAALPGEELLCCVCRSETVVPGNRLVSCEKCRHAYHQDCHVPRAPAPGEGEGTSWVCRQCVFAIATKRGGALKKGPYARAMLGMKLSLPYGLKGLDWDAGHLSNRQQSYCYCGGPGEWNLKMLQCRSCLQWFHEACTQCLSKPLLYGDRFYEFECCVCRGGPEKVRRLQLRWVDVAHLVLYHLSVCCKKKYFDFDREILPFTSENWDSLLLGELSDTPKGERSSKLLSALNSHKDRFISGREIKKRKCLFGLHARMPPPVEPPTGDGALTSFPSGQGPGGGVSRPLGKRRRPEPEPLRRRQKGKVEELGPPSAVRNQPEPQEQRERAHLQRALQASVSPPSPSPNQSYQGSSGYNFRPTDARCLPSSPIRMFASFHPSASTAGTSGDSGPPDRSPLELHIGFPTDIPKSAPHSMTASSSSVSSPSPGLPRRSAPPSPLCRSLSPGTGGGVRGGVGYLSRGDPVRVLARRVRPDGSVQYLVEWGGGGIF
modifications: 35S-methionine-labeled (in the pull-down)
B2: human distal-less homeobox 4 (DLX4), N-terminus HA-tagged (other, not shown: small tags and cut ends)
chain: MTSLPCPLPGRDASKAVFPDLAPVPSVAAAYPLGLSPTTAASPNLSYSRPYGHLLSYPYTEPANPGDSYLSCQQPAALSQPLCGPAEHPQELEADSEKPRLSPEPSERRPQAPAKKLRKPRTIYSSLQLQHLNQRFQHTQYLALPERAQLAAQLGLTQTQVKIWFQNKRSKYKKLLKQNSGGQEGDFPGRTFSVSPCSPPLPSLWDLPKAGTLPTSGYGNSFGAWYQHHSSDVLASPQMM
modifications: 35S-methionine-labeled (in the pull-down)
B3: human hepatocyte nuclear factor 3-gamma (HNF3G), N-terminus HA-tagged (other, not shown: small tags and cut ends)
chain: MLGSVKMEAHDLAEWSYYPEAGEVYSPVTPVPTMAPLNSYMTLNPLSSPYPPGGLPASPLPSGPLAPPAPAAPLGPTFPGLGVSGGSSSSGYGAPGPGLVHGKEMPKGYRRPLAHAKPPYSYISLITMAIQQAPGKMLTLSEIYQWIMDLFPYYRENQQRWQNSIRHSLSFNDCFVKVARSPDKPGKGSYWALHPSSGNMFENGCYLRRQKRFKLEEKVKKGGSGAATTTRNGTGSAASTTTPAATVTSPPQPPPPAPEPEAQGGEDVGALDCGSPASSTPYFTGLELPGELKLDAPYNFNHPFSINNLMSEQTPAPPKLDVGFGGYGAEGGEPGVYYQGLYSRSLLNAS
modifications: 35S-methionine-labeled (in the pull-down)

Molecular target: human IPF1, N-terminus FLAG-tagged (from pcDNA-FLAG-IPF1) (human, UniProt P52945 1-283, limits assumed)
Assay: cell-based or functional assay

Chain of human IPF1, N-terminus FLAG-tagged (from pcDNA-FLAG-IPF1) (P52945 whole entry): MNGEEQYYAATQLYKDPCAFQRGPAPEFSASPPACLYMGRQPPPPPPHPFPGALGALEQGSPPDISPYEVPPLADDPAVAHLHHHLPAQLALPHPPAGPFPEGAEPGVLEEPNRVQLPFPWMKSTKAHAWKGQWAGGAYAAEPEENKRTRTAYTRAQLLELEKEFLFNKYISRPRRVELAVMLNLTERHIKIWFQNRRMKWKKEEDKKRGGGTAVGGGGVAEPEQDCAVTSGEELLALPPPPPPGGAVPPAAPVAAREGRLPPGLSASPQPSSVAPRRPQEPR

**Q.** How did the “IPF1-dependent human insulin promoter activity (luciferase reporter, HeLa cells), inhibition” value turn out when B1 was run?
**A.** Its value is ~25%.

**Q.** For B2, which “IPF1-dependent human insulin promoter activity (luciferase reporter, HeLa cells), inhibition” value is on record?
**A.** Its value is ~60%.

**Q.** With B3 as the binder, how does the “IPF1-dependent human insulin promoter activity (luciferase reporter, HeLa cells), inhibition” value read?
**A.** Its value is ~45%.
